Laboratory results taken from article doi:10.1101/414334.

Legend:
[1] = molecular target: glyceraldehyde-3-phosphate dehydrogenase (GAPDH) of Thermosynechococcus elongatus (Thermosynechococcus elongatus BP-1); assay: cryo-EM structure
[2] = molecular target: glyceraldehyde-3-phosphate dehydrogenase (GAPDH) of Thermosynechococcus elongatus (Thermosynechococcus elongatus BP-1); assay: crystal structure
[3] = molecular target: phosphoribulokinase (PRK) of Thermosynechococcus elongatus, native (Thermosynechococcus elongatus (endogenous in T. elongatus cells)); assay: cryo-EM structure
[4] = molecular target: glyceraldehyde-3-phosphate dehydrogenase (GAPDH) of Thermosynechococcus elongatus (Thermosynechococcus elongatus BP-1); assay: crystal structure; remark: listed apart in the source

glyceraldehyde-3-phosphate dehydrogenase (GAPDH) of Thermosynechococcus elongatus (enzyme)
stoichiometry N [1]: 4
stoichiometry N [2]: 4

phosphoribulokinase (PRK) of Thermosynechococcus elongatus, native (enzyme)
stoichiometry N [3]: 2

CP12 of Thermosynechococcus elongatus (natural protein)
stoichiometry N (CP12 per GAPDH tetramer) [1]: 2
stoichiometry N (CP12 per GAPDH tetramer) [2]: 2
stoichiometry N (CP12 per GAPDH tetramer) [4]: 4
